From patent US20210388087A1 (Chugai, published 2021)
Where no end group is shown, it is not given here.

T1: Biotin-labeled CD3 epsilon peptide antigen (human, also: biotin-labeled, site not given here)
T1 construct: also called CD3 peptide
T1 peptide: QDGNEEMGGITQTPY

T2: cyno CD137-Fc (cynomolgus monkey; human, limits assumed, biotin-labeled)
T2 construct: whole entry 92 named; also called biotin-labeled cynomolgus monkey CD137 fused to human IgG1 Fc fragment; not shown: human IgG1 Fc fragment
T2 chain: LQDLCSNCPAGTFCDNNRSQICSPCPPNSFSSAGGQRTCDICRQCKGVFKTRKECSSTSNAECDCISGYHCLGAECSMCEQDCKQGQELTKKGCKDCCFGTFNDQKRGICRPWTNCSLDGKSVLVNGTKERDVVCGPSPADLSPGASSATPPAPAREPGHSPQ

T3: cyno CD137 (cynomolgus monkey, UniProt Q07011 24-186 (human entry), limits assumed)
T3 construct: also called cynomolgus monkey CD137
T3 chain: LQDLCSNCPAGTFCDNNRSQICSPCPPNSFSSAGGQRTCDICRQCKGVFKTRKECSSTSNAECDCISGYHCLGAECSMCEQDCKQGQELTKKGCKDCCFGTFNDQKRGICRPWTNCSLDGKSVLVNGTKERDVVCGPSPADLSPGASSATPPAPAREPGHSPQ


How the values were obtained:
human CD137-Fc [1] = molecular target: T4, human CD137-Fc (human, biotin-labeled); assay: bead ELISA on biotin-human CD137-Fc, 0 pmol free CD3e peptide
T4 construct: if 90 already holds the Fc, drop the second piece; also called biotin-labeled human CD137 fused to human IgG1 Fc fragment; biotin-human CD137-Fc; not shown: human IgG1 Fc fragment

human CD137-Fc [2] = molecular target: T4, human CD137-Fc; assay: bead ELISA on biotin-human CD137-Fc with 62.5 pmol free human Fc (control competitor)
human CD137-Fc [3] = molecular target: T4, human CD137-Fc; assay: bead ELISA on biotin-human CD137-Fc with 125 pmol/well free CD3e peptide as competitor;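 note: Streptavidin-coated magnetic beads in blocking buffer as the capture surface, well signal read as fluorescence 2 min after adding APS-5 substrate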
human CD137-Fc [4] = molecular target: T4, human CD137-Fc; assay: bead ELISA on biotin-human CD137-Fc, free CD3e peptide vs free Fc
[5] = molecular target: T1, Biotin-labeled CD3 epsilon peptide …; assay: bead ELISA, IgG on biotinylated CD3 epsilon peptide, luminescence
human CD137-Fc [6] = molecular target: T4, human CD137-Fc; assay: bead ELISA on biotin-human CD137-Fc with 62.5 pmol free CD3e peptide as competitor
human CD137-Fc [7] = molecular target: T4, human CD137-Fc; assay: bead ELISA on biotin-human CD137-Fc, 125 vs 0 pmol free CD3e peptide;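 note: target captured on streptavidin-coated magnetic beads, signal read as fluorescence 2 min after adding APS-5 substrate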
human CD137-Fc [8] = molecular target: T4, human CD137-Fc; assay: bead ELISA, IgG on biotinylated antigen, luminescence;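 note: biotinylated antigen captured on streptavidin magnetic beads, then incubated with purified IgG at 50 ng/µL for 1 h at room temperature before detection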
cyno CD137-Fc = molecular target: T2, cyno CD137-Fc; assay: as above
[9] = molecular target: T5, biotin-labeled human CD137 fused to human IgG1 Fc fragment (human, biotin-labeled); assay: competitive ELISA on biotin-human CD137-Fc; free Fc 62.5 pmol (control)
T5 construct: also called human CD137-Fc; biotin-human CD137-Fc; not shown: human IgG1 Fc fragment

[10] = molecular target: T5, biotin-labeled human CD137 fused to …; assay: competitive ELISA on biotin-human CD137-Fc; free CD3e vs free Fc
[11] = molecular target: T5, biotin-labeled human CD137 fused to …; assay: competitive ELISA on biotin-human CD137-Fc; competitor free CD3e 62.5 pmol
human CD137 = human CD137 (human, UniProt Q07011 24-186); assay: SPR Biacore T200, IgG captured on protein A, 25 C;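 note: antigens diluted in ACES running buffer at pH 7.4 were flowed over antibodies held on a CM3 chip bearing amine-coupled protein A, with buffer alone serving as blank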
cyno CD137 = molecular target: T3, cyno CD137; assay: SPR Biacore T200, IgG captured on protein A, 25 C;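 note: antigens diluted in ACES running buffer at pH 7.4 were flowed over antibodies held on a CM3 chip bearing amine-coupled protein A, with buffer alone serving as blank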
human CD3 ed = human CD3 ed (human, UniProt P07766 23-126; P04234 22-105, limits assumed); assay: SPR Biacore T200, IgG captured on protein A, 25 C;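 note: antigens diluted in ACES running buffer at pH 7.4 were flowed over antibodies held on a CM3 chip bearing amine-coupled protein A, with buffer alone serving as blank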

Row | Binder | ELISA signal (human CD137-Fc [1]) | ELISA signal (human CD137-Fc [2]) | ELISA signal (human CD137-Fc [3]) | Signal decrease (human CD137-Fc [4]) | ELISA signal (human CD137-Fc [6]) | Signal decrease (human CD137-Fc [7]) | ELISA signal [9] | Signal decrease [10] | ELISA signal [11] | Kd (human CD137) | koff (human CD137) | kon (human CD137) | Kd (cyno CD137) | koff (cyno CD137) | kon (cyno CD137) | Kd (human CD3 ed) | koff (human CD3 ed) | kon (human CD3 ed) | other results
1 | dBBDu189/L126 (antibody, V domains shown, IgG format; constant regions not specified) VH: QVQLVESGGGLVQPGRSLRLSCAASGFTFSNAWMHWVRQAPGKGLEWIAQIKDRSNQYATYYAPSVKGRFTISRDDSKNSIYLQMNSLKTEDTAVYYCHYVHYAQASSLLPSFGVDAWGQGTTVTVSS VL: DIVMTQSPLSLPVTPGEPASISCRTSEELLHINRYIFLHWYQQKPGQAPRLLIYKVQNRFSGVPDRFSGSGSGTDFTLKISRVEAEDVGVYYCAQGSAVPFTFGQGTKLEIK | – | – | – | – | – | – | 75100 | 87% | 9750 | 0.513 µM | 0.000688 s⁻¹ | 1340 M⁻¹ s⁻¹ | 3.06 µM | 0.00247 s⁻¹ | 807 M⁻¹ s⁻¹ | 2.57 µM | 0.0281 s⁻¹ | 10900 M⁻¹ s⁻¹ | –
2 | dBBDu193/L132 (antibody, V domains shown, IgG format; constant regions not specified; also called dBBDu_193 dBBDu.L132) VH: QVQLVESGGGLVQPGRSLRLSCAASGFTFSNAWMHWVRQAPGKGLEWVAQIKDRSNQYATYYAPSVKGRFTISRDDSKNSIYLQMNSLKTEDTAVYYCHYVHYSAASTLLPSFGVDAWGQGTTVTVSS VL: DIVMTQSPLSLPVTPGEPASISCQTSEELVHINRFIFLHWYQQKPGQAPRLLIYKVSNRFSGVPDRFSGSGSGTDFTLKISRVEAEDVGVYYCAQGTSVPFTFGQGTKLEIK | – | – | – | – | – | – | 116000 | 91% | 10400 | 4.48 µM | 0.00211 s⁻¹ | 471 M⁻¹ s⁻¹ | 757 µM | 0.0061 s⁻¹ | – | 2.03 µM | 0.0201 s⁻¹ | 9890 M⁻¹ s⁻¹ | –
3 | dBBDu193/L127 (antibody, V domains shown, IgG format; constant regions not specified; also called dBBDu_193 dBBDu.L127) VH: QVQLVESGGGLVQPGRSLRLSCAASGFTFSNAWMHWVRQAPGKGLEWVAQIKDRSNQYATYYAPSVKGRFTISRDDSKNSIYLQMNSLKTEDTAVYYCHYVHYSAASTLLPSFGVDAWGQGTTVTVSS VL: DIVMTQSPLSLPVTPGEPASISCRASEELLHINRHIFLHWYQQKPGQAPRLLIYKVYNRFTGVPDRFSGSGSGTDFTLKISRVEAEDVGVYYCAQGTSVPFTFGQGTKLEIK | – | – | – | – | – | – | 6080 | 59.4% | 2470 | 3.3 µM | 0.00145 s⁻¹ | 440 M⁻¹ s⁻¹ | 28.1 µM | 0.00316 s⁻¹ | 112 M⁻¹ s⁻¹ | 1.51 µM | 0.0191 s⁻¹ | 12600 M⁻¹ s⁻¹ | –

Second part, led by results:

Row | ELISA signal (human CD137-Fc [1]) | ELISA signal (human CD137-Fc [2]) | ELISA signal (human CD137-Fc [3]) | Signal decrease (human CD137-Fc [4]) | ELISA signal (human CD137-Fc [6]) | Signal decrease (human CD137-Fc [7]) | ELISA signal [9] | Signal decrease [10] | ELISA signal [11] | Kd (human CD137) | koff (human CD137) | kon (human CD137) | Kd (cyno CD137) | koff (cyno CD137) | kon (cyno CD137) | Kd (human CD3 ed) | koff (human CD3 ed) | kon (human CD3 ed) | Binder | other results
4 | 6620 | 155000 | 2120 | 93.6% | 9970 | 68% | – | – | – | – | – | – | – | – | – | – | – | – | DADU01_3#002 (antibody, V domains shown, Human IgG1; light chain GLS3000 (kappa); also called dBBDu124) VH: QVQLVESGGGLVQPGRSLRLSCAASGFTFSNAWMHWVRQAPGKGLEWVAQIKDKQNLYNAYYAESVKGRFTISRDDSKNSIYLQMNSLKTEDTAVYYCHYVHYASASTVLPAFGVDAWGQGTTVTVSS VL: DIVMTQSPLSLPVTPGEPASISCRSSQSLVHSNRNTYLHWYQQKPGQAPRLLIYKVSNRFSGVPDRFSGSGSGTDFTLKISRVEAEDVGVYYCGQGTQVPYTFGQGTKLEIK | RLU [5]: 174000 RLU; S/N ratio (CD3 peptide/non coating) [5]: 156; RLU (human CD137-Fc [8]): 39100 RLU; S/N ratio (human CD137-Fc/Fc) (human CD137-Fc [8]): 20.3; RLU (cyno CD137-Fc): 10800 RLU; S/N ratio (cyno CD137-Fc/Fc) (cyno CD137-Fc): 5.6
5 | 99400 | 184000 | 98100 | 0.94% | 183000 | 1.26% | – | – | – | – | – | – | – | – | – | – | – | – | anti-human CD137 antibody described in WO2005/035584A1 (abbreviated as B) (antibody, V domains shown, Control antibody; also called control anti-CD137 antibody) VH: QVQLQQWGAGLLKPSETLSLTCAVYGGSFSGYYWSWIRQSPEKGLEWIGEINHGGYVTYNPSLESRVTISVDTSKNQFSLKLSSVTAADTAVYYCARDYGPGNYDWYFDLWGRGTLVTVSS VL: EIVLTQSPATLSLSPGERATLSCRASQSVSSYLAWYQQKPGQAPRLLIYDASNRATGIPARFSGSGSGTDFTLTISSLEPEDFAVYYCQQRSNWPPALTFGGGTKVEIK | –
